Results reported in publication PMC5858142, “A novel cold-adapted esterase from Enterobacter cloacae: Characterization and improvement of its activity and thermostability via the site of Tyr193Cys” (Microbial Cell Factories, 2018).

Tests used:
[1] = tested on: Lip; conditions: optimal pH 9.0, 40 °C; substrate not named, taken as pNPA (best substrate)
[2] = tested on: CC(=O)Oc1ccc([N+](=O)[O-])cc1; test: purified protein; conditions: optimal pH 8.5, 40 °C, substrate not named, taken as pNPA (best substrate)

Molecule | Km [1] | Km [2] | kcat [2] | kcat/Km [2]
CC(=O)Oc1ccc([N+](=O)[O-])cc1 [C2, p-nitrophenyl acetate] | 363 ± 30 µM | – | – | –
Lip (Enterobacter cloacae) | – | 643 ± 30 µM | 9.8 ± 0.09 s⁻¹ | 15200 ± 210 M⁻¹ s⁻¹
